The record followed here is publication PMC10559304 (Molecular Biology of the Cell, 2023).

Data set [1] deals with GMPCPP-polymerized, Taxol-stabilized microtubules of the crosslinking and sliding assay (surface-immobilized HiLyte 647/biotin MTs and free rhodamine MTs). The data set can be described thus: MT crosslinking and sliding assay by three-colour TIRF microscopy.
The target of data set [2] is Taxol-stabilized microtubules of unlabeled, Alexa 647-labeled and biotinylated tubulin (50:2:1.5) (not stated (Pork or Bovine brains)). The data set can be described thus: single-molecule TIRF microscopy motility assay.
In data set [3] the target is D. melanogaster KLP61F extended bipolar assembly domain (BASS-XL) minifilament (D. melanogaster) (UniProt P46863). The data set can be described thus: crystal structure.
The data set “mass photometry” concerns the molecule itself. The data set can be described thus: mass photometry.
The target of data set [4] is microtubules of biotin- and Alexa-Fluor-633-labeled porcine tubulin, polymerized with GMPCPP or Paclitaxel (porcine). In words: single-molecule TIRF microscopy motility assay.
Data set [5] shares this target. The data set can be described thus: single-molecule TIRF microscopy motility assay. This is another data set of the same source.
Data set [6] deals with the molecule itself. In words: single-molecule TIRF microscopy, Neon Green spot intensities.
The target of data set [7] is microtubules of biotin- and Alexa-Fluor-633-labeled porcine tubulin, polymerized with GMPCPP or Paclitaxel (porcine). The data set can be described thus: single-molecule TIRF microscopy motility assay. The source holds these as a separate data set.
The target is the same in data set [8]. The data set can be described thus: single-molecule TIRF microscopy motility assay. The source holds these as a separate data set.
Data set [9] shares this target. The data set can be described thus: single-molecule TIRF microscopy motility assay. The source holds these as a separate data set.

What is called stoichiometry N is a count of units in the complex or per binding partner.

Where two headings read alike, the source gives them in different places.

In the case of “full-length human kinesin-5 (Eg5) without the tail, GFP fusion (domain or fragment)”, the percent of surface-immobilized MTs crosslinked to free MTs in data set [1] was determined as 54%.

Turning to “human Eg5 kinesin-5 minitetramer without tail, labeled with Tetra-methyl Rhodamine (from UniProt P52732;P46863)”, in data set [2], the lifetime at MT plus-ends, long population (Weibull a2) came out at 140 s and the lifetime at MT plus-ends, short population (Weibull a1) was found to be 14.6 s.

In turn, “D. melanogaster KLP61F extended bipolar assembly domain (BASS-XL) minifilament (from UniProt P46863 597-833) (domain or fragment)” registered a stoichiometry N in data set [3] of 4.

B1: D. melanogaster KLP61F kinesin-5 minitetramer without tail, fused to Neon Green (other)
chain: MDISGGNTSRQPQKKSNQNIQVYVRVRPLNSRERCIRSAEVVDVVGPREVVTRHTLDSKLTKKFTFDRSFGPESKQCDVYSVVVSPLIEEVLNGYNCTVFAYGQTGTGKTHTMVGNETAELKSSWEDDSDIGIIPRALSHLFDELRMMEVEYTMRISYLELYNEELCDLLSTDDTTKIRIFDDSTKKGSVIIQGLEEIPVHSKDDVYKLLEKGKERRKTATTLMNAQSSRSHTVFSIVVHIRENGIEGEDMLKIGKLNLVDLAGSENVSKAGNEKGIRVRETVNINQSLLTLGRVITALVDRAPHVPYRESKLTRLLQESLGGRTKTSIIATISPGHKDIEETLSTLEYAHRAKNIQNKPEVNQKLTKKAQSLQDQTNLHNKLIGEVMKISDQHSQAFVAKLMEQMQQQQLLMSKEIQTNLQVIEENNQRHKAMLDSMQEKFATIIDSSLQSVEEHAKQMHKKLEQLGAMSLPDAEELQNLQEELANERALAQQEDALLESMMMQMEQIKNLRSKNSISMSVHLNKMEESRLTRNHRIDDIKSGIQDYQKLGIEASQSAQAELTSQMEAGMLCLDQGVANCSMLQVHMKNLNQKYEKETNENVGSV
In the case of B1, the “stoichiometry N” value in the data set “mass photometry” was 4. The values for the MT plus-end dwell time in data set [4] and in [5] were 78 s and 25 s, respectively. Moreover, the percent of surface-immobilized MTs crosslinked to free MTs in data set [1] came out at 2%.

B2: D. melanogaster KLP61F kinesin-5 minitetramer with tail, fused to Neon Green (other)
chain: MDISGGNTSRQPQKKSNQNIQVYVRVRPLNSRERCIRSAEVVDVVGPREVVTRHTLDSKLTKKFTFDRSFGPESKQCDVYSVVVSPLIEEVLNGYNCTVFAYGQTGTGKTHTMVGNETAELKSSWEDDSDIGIIPRALSHLFDELRMMEVEYTMRISYLELYNEELCDLLSTDDTTKIRIFDDSTKKGSVIIQGLEEIPVHSKDDVYKLLEKGKERRKTATTLMNAQSSRSHTVFSIVVHIRENGIEGEDMLKIGKLNLVDLAGSENVSKAGNEKGIRVRETVNINQSLLTLGRVITALVDRAPHVPYRESKLTRLLQESLGGRTKTSIIATISPGHKDIEETLSTLEYAHRAKNIQNKPEVNQKLTKKAQSLQDQTNLHNKLIGEVMKISDQHSQAFVAKLMEQMQQQQLLMSKEIQTNLQVIEENNQRHKAMLDSMQEKFATIIDSSLQSVEEHAKQMHKKLEQLGAMSLPDAEELQNLQEELANERALAQQEDALLESMMMQMEQIKNLRSKNSISMSVHLNKMEESRLTRNHRIDDIKSGIQDYQKLGIEASQSAQAELTSQMEAGMLCLDQGVANCSMLQVHMKNLNQKYEKETNENVGSVQICEQELVRFQQSELKTYAPTGTTPSKRDFVYPRTLVATSPHQEIVRRYRQELDWSDLDTTATIDECSEGEHDVSMHSVQELSETETIMNSTPIEPVDGVTVKRGCGTTRNSNSNALKPPVATGGKRSSSLSRSLTPSKTSPRGSPAFVRHNKENVA
Take B2: the “stoichiometry N” value in data set [6] is 5 to 10 motors per cluster; in “mass photometry” it was 4. Moreover, the MT plus-end dwell time amounted to 125 s in [7]; 117 s in data set [4]; 267 s in [5]; 147 s in [8]; 25 s in [9]. Further, in data set [1], the percent of surface-immobilized MTs crosslinked to free MTs turned out to be 24%.
